Results reported in a protein production outcome set (Wang et al. 2014).

Experiment: label from the status in PepcDB records

| Sequence | protein production |
| --- | --- |
| MTEPPPTPDRHPDAVESAAPGGYLEPVRAAGTVLWRDTGRGREIALVHRPRYNDWTLPKGKLDEGEHVLVAAVRETVEETGVTPRLGRRLATQRYWKSGWPKQVDWWAATPAPGTTAQFTPTAEVDAVEWLPAAEARARLTYPSDVRVLDDFLHGPAQTVPLVLLRHASAGNKNEWHDYDLLRPLDEAGRAHARAVADILAVFGPLRVVSSTAARCLETVVPYAAAHGVEIRTEHTFTVGVLRSGAQAYDPQAARQTMRALVEERQPTLVCTHGELVADLMAEAAAQTGAPARSRWALRKGAFWVVHRDAKDGSLVAVEHHGLPG | failed |
| MIWRGEKLISNKVKIVRLLNKSKKSLLRGIFSRTTVIAILLILQLLFLLASYSWLEQYRVWLATVEHILTIGAVLYLVNSEMDALSRVTWLILVMIAPLLGAMFLMYTKFDWGYRGLKQRLETLIDESQIYLEDDPETLNQLKSSTSTTYHLVQYFEKAHGNFPVYRNTDVTFLPTGEAFFEKMKEELLKAKKYIFLEFFIIDEGIMWGEILSILEQKVEEGVEVRILYDGMIEITKLSFDYTKRLEKIGIKAKAFSPISPFISTYYNYRDHRKIVVIDGVVGMTGGVNLADEYINHIELFGHWKDSGIMLKGKAVDSFLLLFLQMWSITEEKMLVAPYLGVHDDLVENEGYVIPYGDSPLDTDKVGENVYIDILNHAREYVYIMTPYLILDSELEHAIQFAAERGVDVRIIMPGIPDKPIPYALAKTYYQALTKSGVKIYEYTLGFVHSKIFLSDNTKAVVGTINLDYRSLYHHFECAVYLYKVDAIQDIYRDYMDTLNKSRLVSLKDINNIPKFQKVIGIVTKTIAPLL | failed |
| KEYNIVITGVGGQGILTAANILGWAALRAGYKVRVGEIHGMSQRFGSVIAYVRFGEEVYGAMVPEGKADVILSFEPVEALRYINYLKKGGLVFTNARPIPPVQVSMGIARYPSLEEIKRIVEEDFGGRFLAFDAEKLAIEAGHVVTTNVVLIGALTQTPGFPLSEDHVRDVIKLNVPPKAVEINMRAFDLGVKT | failed |
| MGDFIGSVWWMIVSLGVLVTFHEFGHFWVARRCGVKVLRFSVGFGKPLWMRRDRHGTEFVVAAIPLGGYVKMLDEREGDVHPAEQDQAFNRKTVWQRIAIVAAGPIANLLLCMAMLWAMFVVGKQDYSATVGRADGLAAEAGLTPGERIVRIDGRSVSSWSDASMQLTTAAMDRRDVRVLTASDTASSSEHTLRLSQLPVGFDERRVAALAGIGWQFMLQPPVIAEVVKGSVADGLLKPGDRIVAIDGQPIRSAEDIIPQVQALGAHGGPGMIEVARGEDRLALEIAPRKSPQGQWMIGVRPAAAPAPEYDSRQQYGLFAAVPAAIRETGRMTADSLGMMKRMLTGQASVKNISGPVTIARAANASAERGLDWFLYFLGLLSLSLAIINLMPIPILDGGHLLYYLIELIKGSPISERAMIAGQYVGLAALAGLMGLAFYNDILGLVPR | failed |
| MALKYPSGKEYRGNKPNAARRPAADYANRGMTLEDDLNATNEYYRERGIAVIHKKPTPVQIVRVDYPKRSAAVITEAYFRQASTTDYNGVYRGKYIDFEAKETKNKTAFPLKNFHAHQIRHMEQVVAHGGICFAILRFSLLNETYLLDASHLIAWWNKQEAGGRKSIPKQEIERHGHSIPLGYQPRIDYISVVDNVYFTR | not failed |
| MTTIDPRSELVDGRRRAGARVDAVGAAALLSAAARVGVVCHVHPDADTIGAGLALALVLDGCGKRVEVSFAAPATLPESLRSLPGCHLLVRPEVMRRDVDLVVTVDIPSVDRLGALGDLTDSGRELLVIDHHASNDLFGTANFIDPSADSTTTMVAEILDAWGKPIDPRVAHCIYAGLATDTGSFRWASVRGYRLAARLVEIGVDNATVSRTLMDSHPFTWLPLLSRVLGSAQLVSEAVGGRGLVYVVVDNREWVAARSEEVESIVDIVRTTQQAEVAAVFKEVEPHRWSVSMRAKTVNLAAVASGFGGGGHRLAAGYTTTGSIDDAVASLRAALGLEHHHHHH | not failed |
| MHHYRVSGWTLATEIPLPHLFPCSAPAGEAAADITLRQGPVPPPPVPLRLDRDGIQVGADGHTVIDIPNCVRIGLTGGRDIMVDPAPGASWPEIQTWLLGPGLGVICHQRGVLPLHACAIRTGKGGLAIVGNSGAGKSTTATALVQRGHRLLGDDVLVVDPDTGLAQPCFPMVKLWDSSRSALDIGQEGQQSVGGKIGKWHMPMLAAFDPVPRPLSAIVHLRADPAARRPVLTRWPRPHAAAVLDAMTYRVYLADALHGRRHVLSAATRLAAHVPVWELVRTADFADLAEMLDMLEGLAGALEHHHHHH | failed |
| MNLDAPRVLVLNAAYEVLGLASIKRAVLLVLGGGAEMVSESGLYLNTPSTRIPVPSVVRLKRMVRRRPGRVPLNRRNVLRRDRYTCQYCGQKGGELTVDHVLPKSRGGKSTWDNLVAACRSCNLRKGDRTPEEAGMRLLRPPKPPRVPLFLLDLKEVPPDWRPFVEGLLGLEHHHHHH | not failed |
| MDTELMKLDVHVTAWSRTPSSSGFLNSVMISRDRDFEEFIINDRDGSVTSLGSYQNPSRGPDPLIFLDFRNFEPNYVYQLLLSQFHDHVLSEHIADQIGYTFGTCNSPTSTTDLDQESEEEE | failed |
| MKYWMLLFALLWVSYGTGMARKTEKVVNNGIPWFDDRGEIVNAHGACIVEENGRYYLFGEYKSDKSNAFPGFSCYSSDDLVNWKFERVVLPMQSSGILGPDRVGERVKVMKCPSTGEYVMYMHADDMNYKDPHIGYATCSTIAGEYKLHGPLLYEGKPIRRWDMGTYQDTDGTGYLLLHGGIVYRLSKDYRTAEEKVVSGVGGSHGESPAMFKKDGTYFFLFSNLTSWEKNDNFYFTAPSVKGPWTRQGLFAPEGSLTYNSQTTFVFPLKCGEDTIPMFMGDRWSYPHQASAATYVWMPMQVDGTKLSIPEYWPSWDVDKLKPVNPLRKGKTVDLKKITFSKEADWKVEEGRISSNVKGSTLSIPFTGSCVAVMGETNCHSGYARMNILDKKGEKIYSSLVDFYSKANDHATRFKTPQLAEGEYTLVIEVTGISPTWTDKTKRIYGSDDCFVTITDIVKL | failed |
| APRSVAMVVPQGSDIRQLSDLRGKRIALNKGSNVHWLLLQILEDAGLGLNDVRVVYTPPKYPLTASDYLAVDAWMMWDPLLSDAEHTGELRVVASGEGRVNNHQFYLSRRDYLAQHGDIMRRLLTELTHTGQFIDSHRGEAARLLSAELGI | failed |
| MKKILALILIIYSSSVFSHFSHFEPRIIHLYQDNQDTIILMRMPLPLILLDENWKGIDSKQNIPYTNKVNNSGYLIDPEKITKNLDDFKKSITPGYTIKKNGVVQNYHIESINIFNSDDRKPFSSLKTAEENFTSDVTIRPSATKLFDAGIDIKLRISNTSVINDDISISSILGDKFNAINKLANIINLHRDIANESVTTTLGILDYSSTHLPSMTQQLINGFSDGFIHILIGLDHVLFVLLLFYSAASFLKLLSLATAFTFGHSFSLFFGDNIAIASPIFIPGIELLIALTIAFTAIALLLKKAQHLGTTPLLVIGVIHGFGFSFVFNELEKEGAQTSITNLLSFNFGIEAGQLFIYALAFTMTILIKKQTVLVKKLPYYVSVCALVISAYWVVTRSMPLFDYIVI | failed |
| IEIDSGSGFCFGVVNAIRHAEKQLEKSSDKLYCLGDIVHNTLEVERLGKKGLETIDYDAFSRLRGAKVLLRAHGEPPEIYRMAGENGVTIIDATCPVVLRLQNKIKSRYEATRSLGAQVVIYGKRGHAEVNGLVGQTEGTAIVIESEEELDKIDYTRPVILFSQTTKSLEGFGQIIDSISTRMQPGVTFEHHDTICRQVANRIPHIGAFATAHELVFFVAGEKSSNGKVLFGHCLAANPRSIFISSPEVIVPDMLVPLPASIGICGATSTPRWQMEEVASHIKAL | failed |
| MDFSPPTTTADQSRRGFLKKSLAVSATVAAIGSLPRLSAAEPLTQRYPDPLVGVLDDSFLDIRIFNASVEKLATGMRWAEGPVWVGDGRYLLVSDIANNRIMRWDEVTGALSVYREHSNFSNGMCRDRQGRLLVCEGSSTTSEGRRVTRTEYNGRITVLADSFDGKPFNSPNDIVCKHDGSIWFTDPTFQANSDYEGHKVKQEQPFGVYRIDPSSGKVSRVIDDLAGPNGLCFSPDEKTLYVVEGRAKPNGLIWAIAVNEDGTLGERRKHVEGLEYAAIDGIKCDESGNLWCGWGGNGNPKADLEKLDGVRVFNPQGKAIGHISLPERCANLCFGGREGNRLFMASSHSLYSVFVNARGATLA | failed |
| MIRVMATGVFDILHLGHIHYLKESKKLGDELVVVVARDSTARNNGKIPIFDENSRLALISELKVVDRAILGHEGDMMKTVIEVKPDIITLGYDQKFDEAELQSKINKLGITVKIVRISKYDGQLNSSSSVRKKIMELIGERY | not failed |
| MFIMQPEDTMTLIHDIILASWDILLEAAPYVLFGFFVAGLLKAYVPASFVARHLGRGHVGPVFKAALFGIPLPLCSCGVIPAAAGLRQQGASKGATTSFLIATPETGVDSMAVTWALLDPVMTVARPFAALLTSVAAGLMVDLFPERKRGESEISPPVMSPSRDAALHDGPTTLPAPVIAPVLHGAAGIAAAGSVSLGPIREHAACTCSGHASVAASACCGTSHSVSAPSGASCGCGSAAHAHSGTGCCGHDTPIGQVSGGFSGVVERFRGGMRFAFGELVADIGGWLLLGVVLAAVITILIPDDLFSGTFASGIGGILLMMVVGIPLYVCATASTPIAAAFALKGISPGAALVFLLAGPATNVATITVVARMLGRKAAVIYVAVIGVMSVALGLAVNMLYGWLGMGVTGWVQGSADAEPGMLSAVAAVVLLLLVLYQWLPALVARLRGEAHPAGCGCGH | failed |
| MKKSNIKTLEQFKDQNYGKKGTAKRDSLEMGYDTFKIGALIQEARIEKGMTQEELAIKCGTTKSYISRIENNIKEVRISTLQKIVELGFGGQLQLSIKFLEHHHHHH | not failed |
| MPKTLIILAHPNISQSTVHKHWSDAVRQHTDRFTVHELYAVYPQGKIDVAAEQKLIETHDSLVWQFPIYWFNCPPLLKQWLDEVLTYGWAYGSKGKALKGRKIALAVSLGAPAADYRADGAVGCSVAEVLRPFELTAKYCNADYRPPFTFHTIDSNAGYSEAARQEVERSARDYLAWLDALEHHHHHH | not failed |
| MSSERQLAGRIVVPGEPLPEEVEASPPYVIDYKGVKRATVVGLLREKGDGGGRAFVKLKEIYVPQAGDVVIGLIQSVGIMNWFVDINSPYVAVLSVQDFLGRPFNPAVDDMQSLLKVGDYIKAKVVAFDKTRSPLLTVQGEGLGRIVRGKIVEISPAKVPRVIGRKMSMLKTLEEKTECKIFVARNGRIHLECPNEDLEAIAVMAIKIIDEEAYTSGLTKRIIKFIEEERRIREV | not failed |
| MDHLPMPKFGPLAGLRVVFSGIEIAGPFAGQMFAEWGAEVIWIENVAWADTIRVQPNYPQLSRRNLHALSLNIFKDEGREAFLKLMETTDIFIEASKGPAFARRGITDEVLWQHNPKLVIAHLSGFGQYGTEEYTNLPAYNTIAQAFSGYLIQNGDVDQPMPAFPYTADYFSGLTATTAALAALHKVRETGKGESIDIAMYEVMLRMGQYFMMDYFNGGEMCPRMSKGKDPYYAGCGLYKCADGYIVMELVGITQIEECFKDIGLAHLLGTPEIPEGTQLIHRIECPYGPLVEEKLDAWLATHTIAEVKERFAELNIACAKVLTVPELESNPQYVARESITQWQTMDGRTCKGPNIMPKFKNNPGQIWRGMPSHGMDTAAILKNIGYSENDIQELVSKGLAKVED | not failed |
| MFTLRELPFAKDSMGDFLSPVAFDFHHGKHHQTYVNNLNNLIKGTDFEKSSLFDILTKSSGGVFNNAAQIYNHDFYWDCLSPKATALSDELKGALEKDFGSLEQFKEDFIKSATTLFGSGWNWVAYNLDTQKIEIIQTSNAQTPVTDKKVPLLVVDVWEHAYYIDHKNARPVYLEKFYEHINWHFVSQCYEWAKKEGLGSVDYYINELVHKKA | failed |
